Experimental data from the Immune Epitope Database (IEDB).
Each block holds one sequence with its values, some of them ahead of it.

What was measured:
HLA-B*08:01 = experiment: IEDB peptide-MHC binding, purified MHC/competitive/radioactivity; filed as Kd, often an IC50 or EC50 that approximates it; ≥ and ≤ were set here for values at or beyond the usual limits of such assays
HLA-B*07:02 = experiment: as above
HLA-B*35:01 = experiment: as above
HLA-B*51:01 = experiment: as above
HLA-B*53:01 = experiment: as above
HLA-B*54:01 = experiment: as above
HLA-B*15:01 = experiment: as above; conditions: source organism: Dengue virus 1 Brazil/97-11/1997
HLA-A*02:03 = experiment: as above; conditions: source organism: Dengue virus 1 Brazil/97-11/1997
HLA-A*32:01 = experiment: as above; conditions: source organism: Vaccinia virus WR
HLA-B*48:01 = experiment: IEDB peptide-MHC binding, purified MHC/direct/fluorescence; filed as Kd, often an IC50 or EC50 that approximates it; ≥ and ≤ were set here for values at or beyond the usual limits of such assays; conditions: source organism: Yellow fever virus
[1] = source organism: Vaccinia virus WR
[2] = source organism: Dengue virus 1 Brazil/97-11/1997
[3] = source organism: Mammarenavirus juninense
[4] = source organism: SARS coronavirus Tor2
[5] = source organism: Vaccinia virus Copenhagen
[6] = source organism: Triticum aestivum

Sequence: NFMQRIISL
Kd (HLA-B*08:01; [1]): 1.49 µM

Sequence: IPSTVKTNLY
Kd (HLA-B*07:02; [1]): ≥ 25.6 µM | Kd (HLA-B*35:01; [1]): 0.248 µM | Kd (HLA-B*51:01; [1]): ≥ 69.6 µM | Kd (HLA-B*53:01; [1]): 0.213 µM | Kd (HLA-B*54:01; [1]): 10.3 µM

Sequence: MKMKKKTWL
Kd (HLA-B*08:01; source organism: Dengue virus 4 Philippines/H241/1956): 0.0629 µM

Sequence: PPCQCTVQEF
Kd (HLA-B*07:02; [1]): ≥ 45.3 µM | Kd (HLA-B*35:01; [1]): ≥ 23.4 µM | Kd (HLA-B*51:01; [1]): ≥ 69.6 µM | Kd (HLA-B*53:01; [1]): 5.15 µM | Kd (HLA-B*54:01; [1]): ≥ 69.9 µM

Sequence: IMAIGIVSIL
Kd (HLA-B*08:01; [2]): 0.445 µM | Kd (HLA-B*15:01): 0.0272 µM

Sequence: LPEETNIGCA
Kd (HLA-B*07:02; [1]): ≥ 20.7 µM | Kd (HLA-B*35:01; [1]): 8.68 µM | Kd (HLA-B*51:01; [1]): ≥ 69.6 µM | Kd (HLA-B*53:01; [1]): 2.08 µM | Kd (HLA-B*54:01; [1]): 0.243 µM

Sequence: IPIGMQFDKV
Kd (HLA-B*07:02; [1]): 4.91 µM | Kd (HLA-B*35:01; [1]): 5.28 µM | Kd (HLA-B*51:01; [1]): 0.394 µM | Kd (HLA-B*53:01; [1]): 0.59 µM | Kd (HLA-B*54:01; [1]): 0.0404 µM

Sequence: VMAVGLVSIL
Kd (HLA-B*08:01; source organism: Dengue virus 3 Martinique/1243/1999): 0.154 µM

Sequence: DYRFRFRSV
Kd (HLA-B*08:01; [1]): 0.683 µM

Sequence: ALMRRIAVV
Kd (HLA-B*08:01; [1]): 1.35 µM

Sequence: SILSSFFSL
Kd (HLA-B*08:01; [1]): 0.229 µM

Sequence: KMRPMFAVGL
Kd (HLA-B*08:01; [2]): 4.58 µM

Sequence: GLNSRSTSL
Kd (HLA-A*02:03): 0.0164 µM | Kd (HLA-B*08:01; [2]): 0.0147 µM

Sequence: TPDNFSSLI
Kd (HLA-B*07:02; [3]): 11.3 µM | Kd (HLA-B*35:01; [3]): 15.3 µM | Kd (HLA-B*51:01; [3]): 1.71 µM | Kd (HLA-B*53:01; [3]): 0.372 µM | Kd (HLA-B*54:01; [3]): ≥ 78.1 µM

Sequence: RSMYRIPPF
Kd (HLA-A*32:01): 0.000726 µM | Kd (HLA-B*08:01; [1]): 0.157 µM

Sequence: MCISLSTAI
Kd (HLA-B*54:01; source organism: Mammarenavirus lassaense): 0.601 µM

Sequence: TPKYKFVRI
Kd (HLA-B*07:02; [4]): ≥ 10 µM | Kd (HLA-B*35:01; [4]): ≥ 77.4 µM | Kd (HLA-B*51:01; [4]): 16.1 µM | Kd (HLA-B*53:01; [4]): 16 µM | Kd (HLA-B*54:01; [4]): ≥ 46.2 µM

Sequence: KPIMSMGDII
Kd (HLA-B*07:02; [1]): 0.00649 µM | Kd (HLA-B*35:01; [1]): 0.622 µM | Kd (HLA-B*51:01; [1]): 0.425 µM | Kd (HLA-B*53:01; [1]): 0.0907 µM | Kd (HLA-B*54:01; [1]): 1.98 µM

Sequence: MLILNFCKL
Kd (HLA-B*08:01; [5]): 0.00391 µM

Sequence: LNLSKFMMV
Kd (HLA-B*08:01; [1]): 0.102 µM

Sequence: TPLISFFGLF
Kd (HLA-B*07:02; [1]): 1.14 µM | Kd (HLA-B*35:01; [1]): 0.416 µM | Kd (HLA-B*51:01; [1]): 4.97 µM | Kd (HLA-B*53:01; [1]): 0.0311 µM | Kd (HLA-B*54:01; [1]): 3.96 µM

Sequence: WCRLKFHIV
Kd (HLA-B*08:01; [5]): 0.0819 µM

Sequence: MPTDMLKLF
Kd (HLA-B*07:02; [1]): 0.0178 µM | Kd (HLA-B*35:01; [1]): 0.000163 µM | Kd (HLA-B*51:01; [1]): 0.0992 µM | Kd (HLA-B*53:01; [1]): 0.000141 µM | Kd (HLA-B*54:01; [1]): 0.0286 µM

Sequence: VLRTKITSL
Kd (HLA-B*08:01; [1]): 0.00092 µM

Sequence: KRVVASLMR
Kd (HLA-B*48:01): ≥ 20 µM

Sequence: QPEKEIPEY
Kd (HLA-B*07:02; [1]): ≥ 36.9 µM | Kd (HLA-B*35:01; [1]): 0.0156 µM | Kd (HLA-B*51:01; [1]): ≥ 37.7 µM | Kd (HLA-B*53:01; [1]): 0.0452 µM | Kd (HLA-B*54:01; [1]): ≥ 43.7 µM

Sequence: HRRLRNKRL
Kd (HLA-B*08:01; [1]): 0.0284 µM

Sequence: VPEFAKQYV
Kd (HLA-B*07:02; [1]): 0.128 µM | Kd (HLA-B*35:01; [1]): ≥ 32.6 µM | Kd (HLA-B*51:01; [1]): 0.718 µM | Kd (HLA-B*53:01; [1]): 5.15 µM | Kd (HLA-B*54:01; [1]): 1.6 µM

Kd (HLA-B*07:02; [6]): ≥ 77.5 µM | Kd (HLA-B*35:01; [6]): 0.296 µM | Kd (HLA-B*51:01; [6]): ≥ 77.5 µM | Kd (HLA-B*53:01; [6]): ≥ 35.2 µM | Kd (HLA-B*54:01; [6]): ≥ 78.1 µM
Sequence: QPFRPQQPY

Sequence: KPTTFMLKY
Kd (HLA-B*07:02; [4]): 11.4 µM | Kd (HLA-B*35:01; [4]): 0.0413 µM | Kd (HLA-B*51:01; [4]): 13 µM | Kd (HLA-B*53:01; [4]): 0.0247 µM | Kd (HLA-B*54:01; [4]): 5.22 µM

Sequence: FFKFSFMYI
Kd (HLA-B*08:01; [1]): 0.84 µM
